From US20250011363A1, “OPTIMIZED SHORTENED PEPTIDE THAT BINDS TO ACETYLCHOLINE RECEPTOR, AND USE THEREOF” (SKINMED CO., LTD., priority 2021, published 2025) come the findings set out here.

This assay addresses acetylcholine receptor (Homo sapiens, UniProt P02708). Put plainly: SPR binding affinity (RU) of optimized 5mer/6mer/7mer peptides, Examples 6-7. Conditions: SPR, Resonance Units; peptides tested at 10 μM; 6mer-2 Top sequence (Table 12). The method, boiled down:
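Synthetic 5mer and 6mer peptides, built from frequent or infrequent amino-acid combinations, were tested at 10 μM for binding to the human acetylcholine receptor by surface plasmon resonance. Binding is reported in response units (RU).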
In general terms: In SPR one partner is held on a chip, and binding of the other changes the refractive index at the surface.

Chain of acetylcholine receptor (P02708 21-457): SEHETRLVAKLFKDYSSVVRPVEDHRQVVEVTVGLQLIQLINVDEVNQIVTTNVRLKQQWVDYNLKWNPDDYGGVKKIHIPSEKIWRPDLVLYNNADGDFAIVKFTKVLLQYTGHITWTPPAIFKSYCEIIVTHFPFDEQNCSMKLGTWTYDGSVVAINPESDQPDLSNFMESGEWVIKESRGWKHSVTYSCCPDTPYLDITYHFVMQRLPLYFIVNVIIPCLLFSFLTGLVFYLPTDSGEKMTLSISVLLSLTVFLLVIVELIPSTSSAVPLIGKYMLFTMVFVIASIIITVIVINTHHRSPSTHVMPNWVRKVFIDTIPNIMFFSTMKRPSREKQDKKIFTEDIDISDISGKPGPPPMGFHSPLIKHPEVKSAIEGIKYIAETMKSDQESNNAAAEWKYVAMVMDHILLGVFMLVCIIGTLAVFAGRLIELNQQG

As for 6mer-2-322 (RRYSRR), the Binding affinity was found to be 148 Ru. In the case of 6mer-2-323 (KVLLRK), the Binding affinity is recorded as 145 Ru.

Regarding 6mer-2-324 (KLQSRK), the Binding affinity is 139 Ru. Regarding 6mer-2-325 (RVFSRK), the Binding affinity amounted to 142 Ru. With 6mer-2-326 (RGFYKK), the Binding affinity came to 142 Ru. Regarding 6mer-2-327 (KGLRKR), the Binding affinity turned out to be 153 Ru. For 6mer-2-328 (KRYQRK), the Binding affinity was 131 Ru.

Consider 6mer-2-329 (RVYTKR), for which the Binding affinity turned out to be 142 Ru. As to 6mer-2-330 (KQLRKK), the Binding affinity is recorded as 139 Ru.

Take 6mer-2-331 (RWVSKK): the Binding affinity worked out at 148 Ru. For 6mer-2-332 (RRQYKK), the Binding affinity was determined as 145 Ru. Regarding 6mer-2-333 (KRFRRK), the Binding affinity was found to be 139 Ru. For the substance 6mer-2-334 (KVILRR), the Binding affinity is recorded as 146 Ru.

With 6mer-2-335 (KWRSRR), the Binding affinity turned out to be 153 Ru. With 6mer-2-336 (KLITKR), the Binding affinity stood at 135 Ru. In the case of 6mer-2-337 (KQFQKK), the Binding affinity worked out at 142 Ru. As for 6mer-2-338 (RSVQKR), the Binding affinity is on record as 145 Ru. Under 6mer-2-339 (KQVYKK) stands 151 Ru; under 6mer-2-340 (RRLTRR), 122 Ru. The result for 6mer-2-341 (KVVTKR) reads 144 Ru; that for 6mer-2-342 (KRYRKK), 145 Ru.

As for 6mer-2-343 (KQISKK), the Binding affinity is recorded as 146 Ru. Consider 6mer-2-344 (KGIRRK), for which the Binding affinity came to 148 Ru. The result for 6mer-2-345 (KSRQKK) reads 148 Ru.

6mer-2-346 (KRFSKK): the Binding affinity came out at 153 Ru. For 6mer-2-347 (RRYSKK), the Binding affinity is 148 Ru. As to 6mer-2-348 (KSQLRR), the Binding affinity came out at 153 Ru. The result for 6mer-2-349 (RRLSRR) reads 137 Ru. On to 6mer-2-350 (RGQTRK), for which the Binding affinity is reported as 148 Ru. For the substance 6mer-2-351 (KLYTKR), the Binding affinity was 135 Ru. Regarding 6mer-2-352 (RWFYRR), the Binding affinity is on record as 137 Ru. Consider 6mer-2-353 (RLQTKK), for which the Binding affinity was determined as 137 Ru. As to 6mer-2-354 (RWISKK), the Binding affinity stood at 135 Ru.

Regarding 6mer-2-355 (RGIRKK), the Binding affinity is recorded as 124 Ru. 6mer-2-356 (RLLQRR): the Binding affinity stood at 145 Ru. Under 6mer-2-357 (RGQRKK) stands 151 Ru. Under 6mer-2-358 (RQIYKK) stands 154 Ru; under 6mer-2-359 (RLFCKK), 136 Ru; under 6mer-2-360 (KGVRRR), 141 Ru. Consider 6mer-2-361 (RSFQRR), for which the Binding affinity worked out at 153 Ru. On to 6mer-2-362 (RGRQKR), for which the Binding affinity is reported as 154 Ru. In the case of 6mer-2-363 (KSIYRK), the Binding affinity amounted to 147 Ru.

Take 6mer-2-364 (KVFTKK): the Binding affinity is 154 Ru. In the case of 6mer-2-365 (RWRYRR), the Binding affinity stood at 121 Ru. With 6mer-2-366 (KQYYRR), the Binding affinity was found to be 142 Ru. Consider 6mer-2-367 (RWRSRR), for which the Binding affinity is 142 Ru. The result for 6mer-2-368 (RLRTRR) reads 142 Ru.

With 6mer-2-369 (KVVRRR), the Binding affinity is recorded as 145 Ru. As to 6mer-2-370 (KSLLRR), the Binding affinity was 142 Ru.

For 6mer-2-371 (KRLSRR), the Binding affinity is given as 148 Ru.

As for 6mer-2-372 (KLVQRR), the Binding affinity is 141 Ru. As to 6mer-2-373 (KLIYRK), the Binding affinity was 139 Ru. For 6mer-2-374 (KRQLKK), the Binding affinity is 125 Ru. As to 6mer-2-375 (RVVQKK), the Binding affinity is on record as 131 Ru.
